Here are results for one substance from patent US20230190922A1.

The assay deals with human 4-1BB receptor (h4-1-BB) expressed on a genetically engineered Jurkat T cell line (4-1BB Bioassay, Promega) (human) (UniProt Q07011). In words: cell-based or functional assay. Particulars: scale: relative luciferase expression.
Sequence of human 4-1BB receptor (h4-1-BB) expressed on a genetically engineered Jurkat T cell line (4-1BB Bioassay, Promega) (human) (Q07011 24-255, change not shown): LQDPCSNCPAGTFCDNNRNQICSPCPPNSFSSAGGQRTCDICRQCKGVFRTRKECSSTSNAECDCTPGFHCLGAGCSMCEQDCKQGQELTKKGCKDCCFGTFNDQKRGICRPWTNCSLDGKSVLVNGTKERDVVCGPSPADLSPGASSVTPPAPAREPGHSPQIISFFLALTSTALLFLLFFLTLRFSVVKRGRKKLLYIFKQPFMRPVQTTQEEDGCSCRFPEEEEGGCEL

In turn, “His-tagged h4-1BBL cross-linked with an Fc (from UniProt P41273 71-254) (ligand)” showed a luciferase expression by Jurkat-h4-1BB reporter cells (4-1BB Bioassay, Promega), reference value of 1.
